Measurements: article PMC10838372 (Journal of inherited metabolic disease, 2023)

B1: dihydroorotase (DHO) domain of human CAD, wild type (domain or fragment, UniProt P27708 1456-1846, looked up)
chain: MTSQKLVRLPGLIDVHVHLREPGGTHKEDFASGTAAALAGGITMVCAMPNTRPPIIDAPALALAQKLAEAGARCDFALFLGASSENAGTLGTVAGSAAGLKLYLNETFSELRLDSVVQWMEHFETWPSHLPIVAHAEQQTVAAVLMVAQLTQRSVHICHVARKEEILLIKAAKARGLPVTCEVAPHHLFLSHDDLERLGPGKGEVRPELGSRQDVEALWENMAVIDCFASDHAPHTLEEKCGSRPPPGFPGLETMLPLLLTAVSEGRLSLDDLLQRLHHNPRRIFHLPPQEDTYVEVDLEHEWTIPSHMPFSKAHWTPFEGQKVKGTVRRVVLRGEVAYIDGQVLVPPGYGQDVRKWPQGAVPQLPPSAPATSEMTTTPERPRRGIPGLPD
modifications: carboxylated lysine (KCX) at K1556
B2: DHO domain of human CAD, variant K1556T (domain or fragment, UniProt P27708 1456-1846, looked up)
chain: MTSQKLVRLPGLIDVHVHLREPGGTHKEDFASGTAAALAGGITMVCAMPNTRPPIIDAPALALAQKLAEAGARCDFALFLGASSENAGTLGTVAGSAAGLTLYLNETFSELRLDSVVQWMEHFETWPSHLPIVAHAEQQTVAAVLMVAQLTQRSVHICHVARKEEILLIKAAKARGLPVTCEVAPHHLFLSHDDLERLGPGKGEVRPELGSRQDVEALWENMAVIDCFASDHAPHTLEEKCGSRPPPGFPGLETMLPLLLTAVSEGRLSLDDLLQRLHHNPRRIFHLPPQEDTYVEVDLEHEWTIPSHMPFSKAHWTPFEGQKVKGTVRRVVLRGEVAYIDGQVLVPPGYGQDVRKWPQGAVPQLPPSAPATSEMTTTPERPRRGIPGLPD
B3: DHO domain of human CAD, variant R1810Q (domain or fragment, UniProt P27708 1456-1846, looked up)
chain: MTSQKLVRLPGLIDVHVHLREPGGTHKEDFASGTAAALAGGITMVCAMPNTRPPIIDAPALALAQKLAEAGARCDFALFLGASSENAGTLGTVAGSAAGLKLYLNETFSELRLDSVVQWMEHFETWPSHLPIVAHAEQQTVAAVLMVAQLTQRSVHICHVARKEEILLIKAAKARGLPVTCEVAPHHLFLSHDDLERLGPGKGEVRPELGSRQDVEALWENMAVIDCFASDHAPHTLEEKCGSRPPPGFPGLETMLPLLLTAVSEGRLSLDDLLQRLHHNPRRIFHLPPQEDTYVEVDLEHEWTIPSHMPFSKAHWTPFEGQKVKGTVRRVVLRGEVAYIDGQVLVPPGYGQDVQKWPQGAVPQLPPSAPATSEMTTTPERPRRGIPGLPD
B4: DHO domain of human CAD, variant R1617Q (domain or fragment, UniProt P27708 1456-1846, looked up)
chain: MTSQKLVRLPGLIDVHVHLREPGGTHKEDFASGTAAALAGGITMVCAMPNTRPPIIDAPALALAQKLAEAGARCDFALFLGASSENAGTLGTVAGSAAGLKLYLNETFSELRLDSVVQWMEHFETWPSHLPIVAHAEQQTVAAVLMVAQLTQRSVHICHVAQKEEILLIKAAKARGLPVTCEVAPHHLFLSHDDLERLGPGKGEVRPELGSRQDVEALWENMAVIDCFASDHAPHTLEEKCGSRPPPGFPGLETMLPLLLTAVSEGRLSLDDLLQRLHHNPRRIFHLPPQEDTYVEVDLEHEWTIPSHMPFSKAHWTPFEGQKVKGTVRRVVLRGEVAYIDGQVLVPPGYGQDVRKWPQGAVPQLPPSAPATSEMTTTPERPRRGIPGLPD
B5: DHO domain of human CAD, variant R1722W (domain or fragment, UniProt P27708 1456-1846, looked up)
chain: MTSQKLVRLPGLIDVHVHLREPGGTHKEDFASGTAAALAGGITMVCAMPNTRPPIIDAPALALAQKLAEAGARCDFALFLGASSENAGTLGTVAGSAAGLKLYLNETFSELRLDSVVQWMEHFETWPSHLPIVAHAEQQTVAAVLMVAQLTQRSVHICHVARKEEILLIKAAKARGLPVTCEVAPHHLFLSHDDLERLGPGKGEVRPELGSRQDVEALWENMAVIDCFASDHAPHTLEEKCGSRPPPGFPGLETMLPLLLTAVSEGWLSLDDLLQRLHHNPRRIFHLPPQEDTYVEVDLEHEWTIPSHMPFSKAHWTPFEGQKVKGTVRRVVLRGEVAYIDGQVLVPPGYGQDVRKWPQGAVPQLPPSAPATSEMTTTPERPRRGIPGLPD
B6: DHO domain of human CAD, variant R1789Q (domain or fragment, UniProt P27708 1456-1846, looked up)
chain: MTSQKLVRLPGLIDVHVHLREPGGTHKEDFASGTAAALAGGITMVCAMPNTRPPIIDAPALALAQKLAEAGARCDFALFLGASSENAGTLGTVAGSAAGLKLYLNETFSELRLDSVVQWMEHFETWPSHLPIVAHAEQQTVAAVLMVAQLTQRSVHICHVARKEEILLIKAAKARGLPVTCEVAPHHLFLSHDDLERLGPGKGEVRPELGSRQDVEALWENMAVIDCFASDHAPHTLEEKCGSRPPPGFPGLETMLPLLLTAVSEGRLSLDDLLQRLHHNPRRIFHLPPQEDTYVEVDLEHEWTIPSHMPFSKAHWTPFEGQKVKGTVRRVVLQGEVAYIDGQVLVPPGYGQDVRKWPQGAVPQLPPSAPATSEMTTTPERPRRGIPGLPD
B7: DHO domain of human CAD, variant R1785C (domain or fragment, UniProt P27708 1456-1846, looked up)
chain: MTSQKLVRLPGLIDVHVHLREPGGTHKEDFASGTAAALAGGITMVCAMPNTRPPIIDAPALALAQKLAEAGARCDFALFLGASSENAGTLGTVAGSAAGLKLYLNETFSELRLDSVVQWMEHFETWPSHLPIVAHAEQQTVAAVLMVAQLTQRSVHICHVARKEEILLIKAAKARGLPVTCEVAPHHLFLSHDDLERLGPGKGEVRPELGSRQDVEALWENMAVIDCFASDHAPHTLEEKCGSRPPPGFPGLETMLPLLLTAVSEGRLSLDDLLQRLHHNPRRIFHLPPQEDTYVEVDLEHEWTIPSHMPFSKAHWTPFEGQKVKGTVRCVVLRGEVAYIDGQVLVPPGYGQDVRKWPQGAVPQLPPSAPATSEMTTTPERPRRGIPGLPD
B8: DHO domain of human CAD, variant R1475Q (domain or fragment, UniProt P27708 1456-1846, looked up)
chain: MTSQKLVRLPGLIDVHVHLQEPGGTHKEDFASGTAAALAGGITMVCAMPNTRPPIIDAPALALAQKLAEAGARCDFALFLGASSENAGTLGTVAGSAAGLKLYLNETFSELRLDSVVQWMEHFETWPSHLPIVAHAEQQTVAAVLMVAQLTQRSVHICHVARKEEILLIKAAKARGLPVTCEVAPHHLFLSHDDLERLGPGKGEVRPELGSRQDVEALWENMAVIDCFASDHAPHTLEEKCGSRPPPGFPGLETMLPLLLTAVSEGRLSLDDLLQRLHHNPRRIFHLPPQEDTYVEVDLEHEWTIPSHMPFSKAHWTPFEGQKVKGTVRRVVLRGEVAYIDGQVLVPPGYGQDVRKWPQGAVPQLPPSAPATSEMTTTPERPRRGIPGLPD
B9: DHO domain of human CAD, variant K1482M (domain or fragment, UniProt P27708 1456-1846, looked up)
chain: MTSQKLVRLPGLIDVHVHLREPGGTHMEDFASGTAAALAGGITMVCAMPNTRPPIIDAPALALAQKLAEAGARCDFALFLGASSENAGTLGTVAGSAAGLKLYLNETFSELRLDSVVQWMEHFETWPSHLPIVAHAEQQTVAAVLMVAQLTQRSVHICHVARKEEILLIKAAKARGLPVTCEVAPHHLFLSHDDLERLGPGKGEVRPELGSRQDVEALWENMAVIDCFASDHAPHTLEEKCGSRPPPGFPGLETMLPLLLTAVSEGRLSLDDLLQRLHHNPRRIFHLPPQEDTYVEVDLEHEWTIPSHMPFSKAHWTPFEGQKVKGTVRRVVLRGEVAYIDGQVLVPPGYGQDVRKWPQGAVPQLPPSAPATSEMTTTPERPRRGIPGLPD

Biological target: the molecule itself
Assay: SEC

Stoichiometry N, 2:
B1
B2
B3
B4
B5
B6
B7
B8
B9
